Laboratory results reported in US20140196168A1 (SWETREE TECHNOLOGIES, published 2014).

B1: DREB2A amino acids 169-254 (two-hybrid derivative, Gal4 activation domain fusion) (other, Arabidopsis thaliana, UniProt O82132 169-254, looked up, not shown: large carriers)
chain: CESKPFSGGVEPMYCLENGAEEMKRGVKADKHWLSEFEHNYWSDILKEKEKQKEQGIVETCQQQQQDSLSVADYGWPNDVDQSHLD
B2: ZFHD1 amino acids 1-132 (two-hybrid derivative, Gal4 activation domain fusion) (other, Arabidopsis thaliana, UniProt Q9SEZ1 1-132, looked up, not shown: large carriers)
chain: MDLSSKPQQQLLNSLPIAGELTVTGEMGVCYKECLKNHAANLGGHALDGCGEFMPSPTATSTDPSSLRCAACGCHRNFHRRDPSENLNFLTAPPISSPSGTESPPSRHVSSPVPCSYYTSAPPHHVILSLSS

Molecular target: T1, Gal4-DNA Binding Domain fused to the Arabidopsis thaliana Med25 551-680 amino acid domain (bait, pGBKT7-Med25 … (Arabidopsis thaliana))
T1 construct: Expressed in yeast AH109 as a two-hybrid bait; also called G4-DBD-Med25; Med25 bait construct
Experiment: yeast two-hybrid with deletion derivatives

Row | Binder | binding result
1 | B1 | binds
2 | B2 | binds
